Data published in publication PMC10726252, “Structure and biochemical characterization of L-2-hydroxyglutarate dehydrogenase and its role in the pathogenesis of L-2-hydroxyglutaric aciduria” (The Journal of Biological Chemistry, 2023).

What was measured:
[1] = target: dmL2HGDH with Cys77 substituted by alanine (Drosophila melanogaster) (UniProt Q9VJ28); experiment: not stated; tetrameric state of the Cys77 to alanine mutant in solution (Fig. S11E)
[2] = target: T1, dmL2HGDH (Drosophila melanogaster, UniProt Q9VJ28); experiment: crystal structure, […] Å; absorbance at […] nm; format: binding; conditions: FAD co-purified from E. coli expression
T1 construct: gene L2HGDH; residues 41-455, mitochondrial-targeting peptide (1-40) removed; N-terminal His6-SUMO tag cleaved by ULP1; E. coli; tetramer about 178 kDa

[3] = target: T1, dmL2HGDH; experiment: inhibition of L-2-HG oxidation, DCIP reduction at […] nm; format: biochemical; conditions: read-out: % inhibition at 10 mM
[4] = substrate: O=C(O)CC[C@H](O)C(=O)O; experiment: purified protein; format: biochemical, Drosophila melanogaster; conditions: 200 μM phenazine methosulfate, 100 μM DCIP, 50 mM Hepes pH 7.5, about 25 °C, corrected for FAD occupancy
[5] = target: the molecule itself; experiment: SEC-MALS; protein solution 2 mg/ml on Superdex 200 10/300; 20 mM Hepes pH 7.4, 200 mM NaCl; 0.4 ml/min

| Molecule | Km [4] | Vmax [4] | kcat [4] | kcat/Km [4] | further results |
| --- | --- | --- | --- | --- | --- |
| dmL2HGDH with Cys77 substituted by alanine (from UniProt Q9VJ28 41-455) (enzyme) |  |  |  |  | stoichiometry N [1]: 4 |
| Cc1cc2nc3c(=O)[nH]c(=O)nc-3n(C[C@H](O)[C@H](O)[C@H](O)COP(=O)(O)OP(=O)(O)OC[C@H]3O[C@@H](n4cnc5c(N)ncnc54)[C@H](O)[C@@H]3O)c2cc1C [FAD] |  |  |  |  | crystal structure, 2.85 Å; absorbance at 450 nm [2]: In each monomer, there are an FAD bound at the active site |
| O=C(O)C[C@H](O)C(=O)O [L-MAL] |  |  |  |  | inhibition at 10000 µM [3]: < 30% |
| Drosophila melanogaster L-2-hydroxyglutarate dehydrogenase (dmL2HGDH), residues 41-455 (enzyme, UniProt Q9VJ28 41-455, looked up, L-2-hydroxyglutarate dehydrogenase, Drosophila melanogaster, residues 41-455; the N-terminal 1 to 40 residues (mitochondrial-targeting peptide) removed; Gene synthesized by Sangon Biotech; also called WT dmL2HGDH; truncated dmL2HGDH; source: E. coli BL21 Codon-Plus (DE3)-RIPL, purified (Ni-NTA, tag removal by ULP1, Superdex 200); not shown: His6, N-terminal, cleaved; SUMO, N-terminal, cleaved) GDYDLVVVGGGIVGAASAREIVLRHPSLKVAVLEKECKLAKHQSGHNSGVIHAGIYYKPGTLKARLCVEGMHLAYAYLDEKKIPYKKTGKLIVATDEKEVKLLKDLEKRGIANNVPDLRMIEGSEIQEIEPYCQGVMALHSPHTGIVDWGLVTEHYGQDFKQCGGDIYLDFNVSKFTETKEGTDYPVTIHGAKPGQTVRTKNVLTCGGLQSDLLAEKTGCPRDPRIVPFRGEYLLLTKEKQHMVKGNIYPVPDPRFPFLGVHFTPRMDGSIWLGPNAVLALKREGYTWGDINLFELFDALRYPGFVKMASKYIGFGLSEMSKSWFINLQIKALQKYIPDITEYDIQRGPAGVRAQAMDLDGNLVDDFVFDRGQGSGALAKRVLHCRNAPSPGATSSLAIAKMIADKIENEFSIGK | 130 ± 8 µM | 10.2 µmol/min/mg | 7.76 ± 0.11 s⁻¹ | 59700 M⁻¹ s⁻¹ | stoichiometry N [5]: 4 |
| dmL2HGDH (Drosophila melanogaster; S88A) (protein, residues 41-455, mitochondrial-targeting peptide (1-40) removed; N-terminal His6-SUMO tag cleaved by ULP1; E. coli; tetramer about 178 kDa) GDYDLVVVGGGIVGAASAREIVLRHPSLKVAVLEKECKLAKHQSGHNAGVIHAGIYYKPGTLKARLCVEGMHLAYAYLDEKKIPYKKTGKLIVATDEKEVKLLKDLEKRGIANNVPDLRMIEGSEIQEIEPYCQGVMALHSPHTGIVDWGLVTEHYGQDFKQCGGDIYLDFNVSKFTETKEGTDYPVTIHGAKPGQTVRTKNVLTCGGLQSDLLAEKTGCPRDPRIVPFRGEYLLLTKEKQHMVKGNIYPVPDPRFPFLGVHFTPRMDGSIWLGPNAVLALKREGYTWGDINLFELFDALRYPGFVKMASKYIGFGLSEMSKSWFINLQIKALQKYIPDITEYDIQRGPAGVRAQAMDLDGNLVDDFVFDRGQGSGALAKRVLHCRNAPSPGATSSLAIAKMIADKIENEFSIGK | 560 ± 150 µM | 1.56 µmol/min/mg | 1.19 ± 0.13 s⁻¹ | 2130 M⁻¹ s⁻¹ |  |
| dmL2HGDH (Drosophila melanogaster; R393A) (protein, residues 41-455, mitochondrial-targeting peptide (1-40) removed; N-terminal His6-SUMO tag cleaved by ULP1; E. coli; tetramer about 178 kDa) GDYDLVVVGGGIVGAASAREIVLRHPSLKVAVLEKECKLAKHQSGHNSGVIHAGIYYKPGTLKARLCVEGMHLAYAYLDEKKIPYKKTGKLIVATDEKEVKLLKDLEKRGIANNVPDLRMIEGSEIQEIEPYCQGVMALHSPHTGIVDWGLVTEHYGQDFKQCGGDIYLDFNVSKFTETKEGTDYPVTIHGAKPGQTVRTKNVLTCGGLQSDLLAEKTGCPRDPRIVPFRGEYLLLTKEKQHMVKGNIYPVPDPRFPFLGVHFTPRMDGSIWLGPNAVLALKREGYTWGDINLFELFDALRYPGFVKMASKYIGFGLSEMSKSWFINLQIKALQKYIPDITEYDIQRGPAGVAAQAMDLDGNLVDDFVFDRGQGSGALAKRVLHCRNAPSPGATSSLAIAKMIADKIENEFSIGK | 240 ± 30 µM | 5.68 µmol/min/mg | 4.34 ± 0.15 s⁻¹ | 18100 M⁻¹ s⁻¹ |  |
